Measurements published in publication PMC6783550, “Molecular mechanism of azoxy bond formation for azoxymycins biosynthesis” (Nature Communications, 2019).

Experiments:
[1] = test system: Nc1ccc(/C=C/C(=O)O)cc1; experiment: purified protein; details: 30 °C, general assay: 1 mM NADH, 10 μM PMS, O2, 20 mM HEPES pH 7
[2] = biological target: AzoC (Streptomyces chattanoogensis); experiment: native gel or EMSA + SEC; Native-PAGE and size-exclusion chromatography of purified recombinant AzoC; SEC on Sephacryl S-300, AKTA Purifier, 4 °C, 20 mM Tris pH 8.0, 250 mM NaCl, 1 mL/min, markers IgG (150 kDa) and BSA (67 kDa); self-association, homodimer

| Substance | Km [1] | kcat [1] | stoichiometry N [2] |
| --- | --- | --- | --- |
| AzoC (Streptomyces chattanoogensis) | 4.24 ± 0.9 µM | 42.03 ± 4.19 min⁻¹ |  |
| AzoC (enzyme) |  |  | 2 |
